Measurements as given in patent US20230293644A1, “ANTI-INFLAMMATORY PEPTIDES AND COMPOSITION COMPRISING THE SAME” (Gemvax & KAEL Co., Ltd., priority 2012, published 2023).

Legend:
Assay type in all cases: cell-based, rat
HSP 90 = experiment: 2D-electrophoresis protein expression in neural stem cells: HSP 90; details: β-amyloid alone; negative control 1.0
Method: (§1) Protein expression level of PEP-1 treated group and untreated group was analyzed by 2D-electrophoresis technique and antibody microarray technique. Prepared 200ug by extracting proteome from the neural stem cells cultured in Experiment 1-1 of example 3. In addition, the group in which PEP-1 was not treated was used as the comparison group in the same condition.
(§2) 2D-electrophoresis was performed using 12% acrylamide gels. First gel electrophoresis was performed at Pl 4~10N, using a gel size of 8.5×7cm. After electrophoresis, it was dyed with Colloidal Coomassie Blue, and then compared expression by using PDQuest software to analyze each spot.
(§3) Difference in the expression levels of more than 1.5 times was identified using MALDI-TOF MS (Matrix Desoprtion/lionization Time of Flight Mass Spectromestry). Among these, proteins correlated with inflammation-related signaling, such as i-NOS and HMGB-1 were identified (Refer to Table 6). The changes in protein expression levels either increased or decreased by 1.5 times by amyloid-β protein, but it was confirmed that expression level was regulated close to that of negative control when PEP-1 was added (Refer to FIG. 57).
(§4) The Table 6 below is an analysis of expression levels of proteins associated with inflammation by 2D electrophoresis technique. […]

Pyk2 = experiment: 2D-electrophoresis protein expression in neural stem cells: Pyk2; details: β-amyloid alone; negative control 1.0
Method: as §1, §2, §3, §4

neural stem cells = experiment: Amyloid-β toxicity assessment on neural stem cells; details: 20 µM amyloid-β protein, 48 hours
Method: After removing the cortex from the head of an embryonic rat that had been pregnant for 13 days, it was cultured for a week with Basic Fibroblast Growth Factor (bFGF) to obtain the neural stem cells. To analyze the effects of the amyloid-β protein on the neural stem cells, the pre-oligomerized amyloid-β protein of concentrations 0 to 40 µM was treated on neural stem cells for 48 hours, then CCK-8 assay, BrdU, and TUNEL assay were used for cytotoxicity assessment (refer from BA Yankner et al, 1990 and KN Dahlgren et al, 2002).

i-N0S = experiment: 2D-electrophoresis protein expression in neural stem cells: i-N0S; details: β-amyloid alone; negative control 1.0
Method: as §1, §2, §3, §4

HHGB1 = experiment: 2D-electrophoresis protein expression in neural stem cells: HHGB1; details: β-amyloid alone; negative control 1.0
Method: as §1, §2, §3, §4

MAP Kinase = experiment: 2D-electrophoresis protein expression in neural stem cells: MAP Kinase; details: β-amyloid alone; negative control 1.0
Method: as §1, §2, §3, §4

e-N0S = experiment: 2D-electrophoresis protein expression in neural stem cells: e-N0S; details: β-amyloid alone; negative control 1.0
Method: as §1, §2, §3, §4

HSP 70 = experiment: 2D-electrophoresis protein expression in neural stem cells: HSP 70; details: β-amyloid alone; negative control 1.0
Method: as §1, §2, §3, §4

GAUD 153 = experiment: 2D-electrophoresis protein expression in neural stem cells: GAUD 153; details: β-amyloid alone; negative control 1.0
Method: as §1, §2, §3, §4

amyloid-β protein
HSP 90 expression, 20ug β -amyloid treated group (fold) (HSP 90): -1.8 fold
Pyk2 expression, 20ug β -amyloid treated group (fold) (Pyk2): 2.0 fold
cell survival (neural stem cells): 60%
i-N0S expression, 20ug β -amyloid treated group (fold) (i-N0S): 1.9 fold
HHGB1 expression, 20ug β -amyloid treated group (fold) (HHGB1): -1.5 fold
MAP Kinase expression, 20ug β -amyloid treated group (fold) (MAP Kinase): 2.2 fold
e-N0S expression, 20ug β -amyloid treated group (fold) (e-N0S): 1.9 fold
HSP 70 expression, 20ug β -amyloid treated group (fold) (HSP 70): -2.3 fold
GAUD 153 expression, 20ug β -amyloid treated group (fold) (GAUD 153): 1.6 fold
